No end group written: not given here.
Experiments:
[1] = target: T1, soluble IGF-1R (recombinant human IGF-1R extracellular domain, R&D Systems Cat. # 391-GR/CF) (human, UniProt P08069 31-935); test: phage ELISA
T1 construct: extracellular domain; Bought protein; coated on plates (phage ELISA, TRF) or Eu-labelled (TR-FRET); also called sIGF-1R; rhIGF-1R

[2] = target: T2, soluble human insulin receptor-immunoglobulin heavy chain chimera (human, UniProt P06213 28-956, limits assumed); test: phage ELISA
T2 construct: extracellular domain; also called sIR-Fc; IR (prepared according to Bass et al., 1996); not shown: immunoglobulin heavy chain constant domains (Bass et al., 1996)

| Binder | ratio over background [1] [ratio] | ratio over background [2] [ratio] | IR/IGF-1R ratio comparison [2] [ratio] |
| --- | --- | --- | --- |
| YRGMLVLGRSSDGAGKVAFERPARIGQTVFAVNFYDWFV (on phage) [A6L-0-E6-IR] | 31 | 1.8 | – |
| VGRASGFPENFYDWFGRQLSLQSGEQ (on phage) [M2CA-4-H6-IGFR] | 10.5 | 0.7 | – |
| GFREGSFYDWFQAQVT (on phage) [E4Dα-2-D11-IR] | 11.1 | 3.3 | – |
| SQAGSAFYAWFDQVLRTVHSA (on phage) [20E2Bβ-4-G6-IR] | 6.2 | – | – |
| RGAVAGFHDQFYDWFDRQVSRVHKFG (on phage) [H2CA-4-H9-IGFR] | 5.6 | – | – |
| AICDAGFHEHFYDWFALQVSDCGRQS (on phage) [H2CA-2-B11-IGFR] | 4.6 | 1.6 | 0.3 |
| LGYQEPFQQNFYDWFVRQVSGAENAG (on phage) [H2CA-3-E8-IGFR] | 6.3 | 2.2 | – |
| EAASLGSQDRNFYDWFVRQVV (on phage) [A6S-2-D11-IR] | 37.4 | 13.5 | – |
| VERSASSQDGNFYDWFVVQIR (on phage) [A6S-2-D1-IR] | 30.6 | 12 | – |
| TSEVQRRSQDNFYDWFVAQVA (on phage) [A6S-3-E2-IR] | 24.7 | 9.8 | – |
| HLADGQFHEKFYDWFERQISSRCNDC (on phage) [E2CA-3-E11-IGFR] | – | 1 | – |
| FRTLAAQHDSFYDWFDRQVSGAAGER (on phage) [H2CA-3-C11-IGFR] | 3.3 | 1.6 | – |
| TFYSCLASLLTGTPQPNRGPWERCR (on phage) [20C-3-G3-IGFR] | 32.3 | 1.2 | – |
| FFYDCLAALLQGVARYHDLCAVEIT (on phage) [20C-4-C7-IGFR] | 28 | 1.3 | – |
| RGQSDAFYSGLWALIGLSDG (on phage) [R20β-4-A6-IR] | 25.9 | 1.5 | – |
| GVRAMSFYDALVSVLGLGPSG (on phage) [20E2B-1-A6-IGFR] | 18.1 | 1.1 | – |
| RLFYCGIQALGANLGYSGCV (on phage) [R20α-4-20A12-IR] | 39.9 | 2.4 | – |
| LQPCSGFYECIERLIGVKLSG (not fully specified (bridges); cysteine pairing not given here, on phage) [20E2Bβ-4-G7-IR] | 25.2 | 1.6 | – |
| YRGMLVLGRISGGAGKAASERPARIGQKVSAVNFYDWFV (on phage) [A6L-0-E3-IR] | 26 | – | – |
| VEGRGLFYDLLRQLLARRQNG (on phage) [20E2B-3-C6-IGFR] | 16.8 | 1.1 | – |
| RGCNDDGGKGWSDDPFYHKLSELICGG (on phage) [B6Hα-1-A2-IR] | – | 1 | – |
| QGGSASFYDAIDRLLRMRIGG (on phage) [20E2A-4-F11-IGFR] | 18.8 | 1.3 | – |
| RCEEKQAEVGPSSDPFYHKMSELLGCR (on phage) [B6Ha-3-E9-IR] | 24.2 | 1.7 | – |
| DRDFCRFYERLTALVGGQVDGGWPC (on phage) [20C-3-F6-IGFR] | 26.1 | 1.9 | – |
| KLHNLMFYYGLQRLVWGAGLG (on phage) [20E23-4-H3-IGFR] | 14.8 | 1.1 | – |
| GNGDGMFYQLLSLLVGRDMHV (on phage) [20E2B-3-C2-IGFR] | 8.9 | 0.6 | – |
| SSYGCDGFYLMLFSLGLVASQELEC (on phage) [20C-3-A1-IGFR] | 20.8 | 1.5 | – |

| Binder | ratio over background [1] [ratio] | ratio over background [2] [ratio] | IR/IGF-1R ratio comparison [2] [ratio] |
| --- | --- | --- | --- |
| PDLHKGFYAQLAQLIRGQLLS (on phage) [20E2B-3-E3-IGFR] | 16.3 | 1.3 | – |
| FYDAIDQLVRGSARAGGTRD (on phage) [R20α-3-20E2-IR] | 39.9 | 3.1 | – |
| VGYQGQGDENFYDWFIRQVSGRLGVQ (on phage) [H2CA-4-F5-IGFR] | 9.7 | 0.8 | – |
| YSCGDGFYSLLSDLLGGQFRC (on phage) [20E22-4-H12-IGFR] | 9.7 | 0.8 | – |
| RGMKEEVLVGGSTDPFYHKLSELLQGS (on phage) [B6Hα-3-F11-IR] | 18.7 | 1.6 | – |
| IQQELTFYDLLHRLVRSELGS (on phage) [20E2B-3-D2-IGFR] | 12.4 | 1.1 | – |
| GGTEVDFYRALERLVRGQLGL (on phage) [20E2B-3-D8-IGFR] | 17.7 | 1.6 | – |
| LRIANLFYQRLWDLAFGGGG (on phage) [20E2B-3-E8-IGFR] | 16.7 | 1.5 | – |
| DRAFYNGLRDLVGAVYGAWD (on phage) [R20α-4-20C11-IR] | 30.8 | 3 | – |
| PVGVQGFYEGLSRLVLGRGGW (on phage) [20E2B-4-F8-IGFR] | 7.3 | 0.8 | – |
| RFSTDGFYQYLLALVGGGPVG (on phage) [20E2B-1-A11-IGFR] | 9.5 | 1 | – |
| NSRDGGFYLQLERLLGFPVTG (on phage) [20E2B-3-D4-IGFR] | 7.9 | 0.8 | – |
| SACQFDCHENFYDWFARQVSGGAAYG (on phage) [H2CA-4-E8-IGFR] | 9.2 | 1 | – |
| QPAPDGFYSALMKLIGRGGVS (on phage) [20E2B-3-C8-IGFR] | 15.6 | 1.8 | – |
| PGTDLGFYQALRCVVIQGACD (on phage) [20E2B-2-B2-IGFR] | 4.9 | 0.6 | – |
| AQPCGGFYGLLEQLVGRSVCD (on phage) [20E2B-4-F10-IGFR] | 17.3 | 2.2 | – |
| QPDHSYFYSLLQELVGSEERL (on phage) [20E2B-4-F9-IGFR] | 14.7 | – | – |
| QFYGCLLDLSLGVPSFGWRRRCITA (on phage) [20C-3-A4-IGFR] | 8.8 | 1.2 | – |
| LGVTDGFYAALGYLIHGVGQF (on phage) [20E2B-3-D11-IGFR] | 12.2 | 1.6 | – |
| ICTGQGFYQVLCGLLRGTSAR (on phage) [20E2B-2-B3-IGFR] | 5.3 | 0.7 | – |
| QGNVLDFYGWIGRLLAKQGSD (on phage) [20E2B-3-D12-IGFR] | 6.2 | 0.9 | – |
| SAAQLFFQESFYDWFLRQVAESSQPN (on phage) [H2CA-4-F11-IGFR] | 6.8 | 1 | – |
| VATSQGFYSGLSELLQGGGNV (on phage) [20E2B-3-E12-IGFR] | 6 | 0.8 | – |
| IWATGDFYRLLSQLVMGRVGT (on phage) [20E2B-2-28-IGFR] | 5.7 | 0.8 | – |
| RGIVAMVEATEVGSDHDPFYHKLSELVQGS (on phage) [B6Hα-2-C7-IR] | – | 1 | – |
| GRTMAVMAAGGPDDPFYHKLSELVQGG (on phage) [B6Hα-2-D6-IR] | – | 1 | – |

Reference: patent US20040023887A1 (published 2004)
